# In article PMC10786891, “Massively parallel profiling of RNA-targeting CRISPR-Cas13d”:
# T1: EsCas13d, nuclease-dead (Eubacterium siraeum, UniProt B0MS50, R295A;H300A;R849A;H854A)
# T1 sequence: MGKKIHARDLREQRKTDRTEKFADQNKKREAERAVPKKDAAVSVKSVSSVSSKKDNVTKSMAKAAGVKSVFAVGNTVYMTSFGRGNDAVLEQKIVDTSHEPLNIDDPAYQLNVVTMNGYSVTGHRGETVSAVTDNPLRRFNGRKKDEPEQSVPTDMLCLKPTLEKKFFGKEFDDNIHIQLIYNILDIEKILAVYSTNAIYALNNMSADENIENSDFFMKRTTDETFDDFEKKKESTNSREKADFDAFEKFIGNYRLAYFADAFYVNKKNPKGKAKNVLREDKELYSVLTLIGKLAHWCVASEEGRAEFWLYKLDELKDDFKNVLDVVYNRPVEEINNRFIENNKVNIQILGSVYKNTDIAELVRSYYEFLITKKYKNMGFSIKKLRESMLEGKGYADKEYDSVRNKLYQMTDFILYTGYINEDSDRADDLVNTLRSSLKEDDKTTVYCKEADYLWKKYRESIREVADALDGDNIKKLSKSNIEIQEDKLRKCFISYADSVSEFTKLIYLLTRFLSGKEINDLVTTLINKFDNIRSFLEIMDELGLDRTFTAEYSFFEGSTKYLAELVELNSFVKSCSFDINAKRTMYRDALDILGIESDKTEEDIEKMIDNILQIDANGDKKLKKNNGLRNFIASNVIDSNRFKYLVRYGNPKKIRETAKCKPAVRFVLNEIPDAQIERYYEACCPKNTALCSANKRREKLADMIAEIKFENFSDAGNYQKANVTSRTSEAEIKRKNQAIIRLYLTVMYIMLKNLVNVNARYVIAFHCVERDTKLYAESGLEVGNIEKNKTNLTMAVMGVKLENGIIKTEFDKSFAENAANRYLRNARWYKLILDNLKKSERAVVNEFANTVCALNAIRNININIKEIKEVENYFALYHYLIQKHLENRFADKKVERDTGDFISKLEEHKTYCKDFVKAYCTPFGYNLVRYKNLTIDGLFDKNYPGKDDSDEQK
# Molecular target: T1, EsCas13d, nuclease-dead
# Test: crRNA (strand 1, pre-loaded); Mg2+; 40 mM Tris-HCl pH 7.5, 150 mM NaCl, 6 mM MgCl2, 1 mM DTT, 0.1% Tween-20, 0.2 mg/ml BSA; 25 C; 10 min per concentration, then washed
# Conditions: tags: His6-TwinStrep-SUMO cleaved; N-terminal SNAP kept (SNAP-Surface 488); label: 3' end held by stalled T7 RNA polymerase
row,Binder,Kd
1,target 2 MT 5'PFS GAG 3'PFS CCA (mixed) RNA 1: CACCCGUGCAAAAUUGCAGGGGUCUAAAACCUUCUCCAAAUUGUUUCAUCCU RNA 2: GGGAAUGGAUCCACAUCUACGAAUUCGAGAGGAUGAAACAAUUUGGAGAAGCCAAGAUCGGAAGAGCACACGU,17.2 ± 2.6 nM
2,target 2 MT 5'PFS GAG 3'PFS CCG (mixed) RNA 1: CACCCGUGCAAAAUUGCAGGGGUCUAAAACCUUCUCCAAAUUGUUUCAUCCU RNA 2: GGGAAUGGAUCCACAUCUACGAAUUCGAGAGGAUGAAACAAUUUGGAGAAGCCGAGAUCGGAAGAGCACACGU,6.77 ± 0.3 nM
3,"target 1 insG 3' of 19,insA 3' of 11 (mixed) RNA 1: CACCCGUGCAAAAAUGCAGGGGUCUAAAACUGAGCGGAUAACCUCUCUAUGG RNA 2: GGGAAUGGAUCCACAUCUACGAAUUCGUACCAUGAGAGAGGUAUAUCCGCUCACCGAGAUCGGAAGAGCACACGU",89 ± 16 nM
4,target 2 MT 5'PFS GUG 3'PFS AAC (mixed) RNA 1: CACCCGUGCAAAAUUGCAGGGGUCUAAAACCUUCUCCAAAUUGUUUCAUCCU RNA 2: GGGAAUGGAUCCACAUCUACGAAUUCGUGAGGAUGAAACAAUUUGGAGAAGAACAGAUCGGAAGAGCACACGU,10.5 ± 1.6 nM
5,target 2 MT 5'PFS GUG 3'PFS AAA (mixed) RNA 1: CACCCGUGCAAAAUUGCAGGGGUCUAAAACCUUCUCCAAAUUGUUUCAUCCU RNA 2: GGGAAUGGAUCCACAUCUACGAAUUCGUGAGGAUGAAACAAUUUGGAGAAGAAAAGAUCGGAAGAGCACACGU,9.7 ± 1.4 nM
6,target 2 MT 5'PFS GUG 3'PFS AAG (mixed) RNA 1: CACCCGUGCAAAAUUGCAGGGGUCUAAAACCUUCUCCAAAUUGUUUCAUCCU RNA 2: GGGAAUGGAUCCACAUCUACGAAUUCGUGAGGAUGAAACAAUUUGGAGAAGAAGAGAUCGGAAGAGCACACGU,12.4 ± 1.8 nM
7,target 2 MT 5'PFS ACG 3'PFS UAG (mixed) RNA 1: CACCCGUGCAAAAUUGCAGGGGUCUAAAACCUUCUCCAAAUUGUUUCAUCCU RNA 2: GGGAAUGGAUCCACAUCUACGAAUUCACGAGGAUGAAACAAUUUGGAGAAGUAGAGAUCGGAAGAGCACACGU,4.6 ± 1.1 nM
8,target 2 MT 5'PFS GAG 3'PFS CCU (mixed) RNA 1: CACCCGUGCAAAAUUGCAGGGGUCUAAAACCUUCUCCAAAUUGUUUCAUCCU RNA 2: GGGAAUGGAUCCACAUCUACGAAUUCGAGAGGAUGAAACAAUUUGGAGAAGCCUAGAUCGGAAGAGCACACGU,~130 nM
9,target 2 MT 5'PFS AAA 3'PFS AAA (mixed) RNA 1: CACCCGUGCAAAAUUGCAGGGGUCUAAAACCUUCUCCAAAUUGUUUCAUCCU RNA 2: GGGAAUGGAUCCACAUCUACGAAUUCAAAAGGAUGAAACAAUUUGGAGAAGAAAAGAUCGGAAGAGCACACGU,4.9 ± 1.3 nM
10,target 2 MT 5'PFS AGU 3'PFS AAU (mixed) RNA 1: CACCCGUGCAAAAUUGCAGGGGUCUAAAACCUUCUCCAAAUUGUUUCAUCCU RNA 2: GGGAAUGGAUCCACAUCUACGAAUUCAGUAGGAUGAAACAAUUUGGAGAAGAAUAGAUCGGAAGAGCACACGU,7.6 ± 1 nM
11,target 2 MT 5'PFS AGU 3'PFS AAG (mixed) RNA 1: CACCCGUGCAAAAUUGCAGGGGUCUAAAACCUUCUCCAAAUUGUUUCAUCCU RNA 2: GGGAAUGGAUCCACAUCUACGAAUUCAGUAGGAUGAAACAAUUUGGAGAAGAAGAGAUCGGAAGAGCACACGU,11 ± 2.4 nM
12,target 2 MT 5'PFS UAA 3'PFS UAA (mixed) RNA 1: CACCCGUGCAAAAUUGCAGGGGUCUAAAACCUUCUCCAAAUUGUUUCAUCCU RNA 2: GGGAAUGGAUCCACAUCUACGAAUUCUAAAGGAUGAAACAAUUUGGAGAAGUAAAGAUCGGAAGAGCACACGU,4.8 ± 1.3 nM
13,target 2 MT 5'PFS UAA 3'PFS UAC (mixed) RNA 1: CACCCGUGCAAAAUUGCAGGGGUCUAAAACCUUCUCCAAAUUGUUUCAUCCU RNA 2: GGGAAUGGAUCCACAUCUACGAAUUCUAAAGGAUGAAACAAUUUGGAGAAGUACAGAUCGGAAGAGCACACGU,7.1 ± 1.6 nM
14,"target 1 insC 3' of 9,insA 3' of 2 (mixed) RNA 1: CACCCGUGCAAAAAUGCAGGGGUCUAAAACUGAGCGGAUAACCUCUCUAUGG RNA 2: GGGAAUGGAUCCACAUCUACGAAUUCGUACCAUAGAGAGGUUACUCCGCUCAACCGAGAUCGGAAGAGCACACGU",12.3 ± 0.7 nM
15,target 2 MT 5'PFS GCC 3'PFS AUC (mixed) RNA 1: CACCCGUGCAAAAUUGCAGGGGUCUAAAACCUUCUCCAAAUUGUUUCAUCCU RNA 2: GGGAAUGGAUCCACAUCUACGAAUUCGCCAGGAUGAAACAAUUUGGAGAAGAUCAGAUCGGAAGAGCACACGU,12.7 ± 1.1 nM
16,target 2 MT 5'PFS GCC 3'PFS AUA (mixed) RNA 1: CACCCGUGCAAAAUUGCAGGGGUCUAAAACCUUCUCCAAAUUGUUUCAUCCU RNA 2: GGGAAUGGAUCCACAUCUACGAAUUCGCCAGGAUGAAACAAUUUGGAGAAGAUAAGAUCGGAAGAGCACACGU,10.4 ± 1.8 nM
17,target 2 MT 5'PFS GCC 3'PFS AUG (mixed) RNA 1: CACCCGUGCAAAAUUGCAGGGGUCUAAAACCUUCUCCAAAUUGUUUCAUCCU RNA 2: GGGAAUGGAUCCACAUCUACGAAUUCGCCAGGAUGAAACAAUUUGGAGAAGAUGAGAUCGGAAGAGCACACGU,12.9 ± 1.1 nM
18,target 2 MT 5'PFS AGG 3'PFS UAA (mixed) RNA 1: CACCCGUGCAAAAUUGCAGGGGUCUAAAACCUUCUCCAAAUUGUUUCAUCCU RNA 2: GGGAAUGGAUCCACAUCUACGAAUUCAGGAGGAUGAAACAAUUUGGAGAAGUAAAGAUCGGAAGAGCACACGU,4.9 ± 1.1 nM
19,target 2 MT 5'PFS UAA 3'PFS UAU (mixed) RNA 1: CACCCGUGCAAAAUUGCAGGGGUCUAAAACCUUCUCCAAAUUGUUUCAUCCU RNA 2: GGGAAUGGAUCCACAUCUACGAAUUCUAAAGGAUGAAACAAUUUGGAGAAGUAUAGAUCGGAAGAGCACACGU,3.7 ± 1 nM
20,target 2 MT 5'PFS AGA 3'PFS CCA (mixed) RNA 1: CACCCGUGCAAAAUUGCAGGGGUCUAAAACCUUCUCCAAAUUGUUUCAUCCU RNA 2: GGGAAUGGAUCCACAUCUACGAAUUCAGAAGGAUGAAACAAUUUGGAGAAGCCAAGAUCGGAAGAGCACACGU,~24 nM
21,target 2 MT 5'PFS AGA 3'PFS CCG (mixed) RNA 1: CACCCGUGCAAAAUUGCAGGGGUCUAAAACCUUCUCCAAAUUGUUUCAUCCU RNA 2: GGGAAUGGAUCCACAUCUACGAAUUCAGAAGGAUGAAACAAUUUGGAGAAGCCGAGAUCGGAAGAGCACACGU,8.3 ± 1.1 nM
22,target 2 MT 5'PFS GAC 3'PFS UUA (mixed) RNA 1: CACCCGUGCAAAAUUGCAGGGGUCUAAAACCUUCUCCAAAUUGUUUCAUCCU RNA 2: GGGAAUGGAUCCACAUCUACGAAUUCGACAGGAUGAAACAAUUUGGAGAAGUUAAGAUCGGAAGAGCACACGU,14.3 ± 3 nM
23,target 2 MT 5'PFS GAC 3'PFS UUC (mixed) RNA 1: CACCCGUGCAAAAUUGCAGGGGUCUAAAACCUUCUCCAAAUUGUUUCAUCCU RNA 2: GGGAAUGGAUCCACAUCUACGAAUUCGACAGGAUGAAACAAUUUGGAGAAGUUCAGAUCGGAAGAGCACACGU,33 ± 12 nM
24,target 2 MT 5'PFS GAC 3'PFS UUG (mixed) RNA 1: CACCCGUGCAAAAUUGCAGGGGUCUAAAACCUUCUCCAAAUUGUUUCAUCCU RNA 2: GGGAAUGGAUCCACAUCUACGAAUUCGACAGGAUGAAACAAUUUGGAGAAGUUGAGAUCGGAAGAGCACACGU,15 ± 4 nM
